Laboratory results from US11059903B2, “Anti-PSMA antibodies, uses thereof and conjugates thereof” (Polytherics Limited, priority 2016, dated 2021).
Where a chain is given by its changes, count along the chain named.

B1: AB-09: Prior art anti-PSMA antibody, heavy chain SEQ ID No 15, light chain SEQ ID No 16 (antibody, V domains shown)
VH: MELGLRWVLLVALLRGVQCQVQLVESGGGVVQPGRSLRLSCAASGFTFSNYVMHWVRQAPGKGLEWVAIIWYDGSNKYYADSVKGRFTISRDNSKNTLYLQMNSLRAEDTAVYYCAGGYNWNYEYHYYGMDVWGQGTTVTVSS
VL: MRVPAQLLGLLLLCFPGARCDIQMTQSPSSLSASVGDRVTITCRASQGITNYLAWFQQKPGKAPKSLIYAASSLQSGVPSKFSGSGSGTDFSLTISSLQPEDFATYYCQQYNSYPITFGQGTRLEIK
B2: AB-03: Humanised anti-PSMA antibody, heavy chain SEQ ID No 7, light chain SEQ ID No 8 (antibody, V domains shown)
VH: EVQLVQSGAEVKKPGASVKVSCKASGYTFTEYTIHWVRQAPGKGLEWIGNINPNNGGTTYNQKFEDRVTITVDKSTSTAYMELSSLRSEDTAVYYCAGGWTFDYWGQGTTVTVSS
VL: DIQMTQSPSTLSASVGDRVTITCKASQDVGTAVDWYQQKPGQAPKLLIYWASTRHTGVPDRFSGSGSGTDFTLTISRLQPEDFAVYYCQQFTRYPLTFGQGTKVDIK
B3: AB-04: Humanised anti-PSMA antibody, heavy chain SEQ ID No 9, light chain SEQ ID No 8 (antibody, V domains shown)
VH: B2 VH with G99A, F102M
VL: B2 VL
B4: AB-05: Humanised anti-PSMA antibody, heavy chain SEQ ID No 5, light chain SEQ ID No 10 (antibody, V domains shown)
VH: B2 VH with G98A, G99Y, T101L
VL: B2 VL with F91Y, T92N, R93A, P95S

Assay: Heat stress test, aggregation analysed by SEC
Type: physicochemical
Settings: for Ab in aggregated form (%) / Ab in native conformation (%): post stress test: 0.5 mg/mL in PBS, 75° C. for 30 min, SEC % area
Method: Antibody samples (0.5 mg/mL in PBS) were incubated at 75° C. for 30 min followed by incubation in an ice-bath for 5 min prior to being analysed for their extent of aggregation. Analysis of antibody solutions was carried out by Size Exclusion Chromatography (SEC) and by turbidity measurements.
SEC was performed using a TOSOH Bioscience TSK gel Super SW 3000 column. UV absorbance at 280 nm was monitored during an isocratic elution with a 0.2 M Potassium phosphate buffer, pH 6.8 (0.2 M potassium chloride and 15% isopropanol). The elution times and number of peaks indicate whether the sample contains aggregated, degraded or native antibody. The % area under the curve (Abs280) was used to determine the quantity of each species present in the SEC analysis.

Molecule	Stability compared with AB-02 to AB-06 antibodies (heat stress test, in words)	Ab in aggregated form (%)	Ab in native conformation (%)
B1	less stable	100%	0%
B2	–	64%	36%
B3	–	73%	27%
B4	–	98%	2%
